Measured values reported in US20240059799A1 (Pfizer, published 2024).
Each block holds one binder with its values, some of them ahead of it.

Key:
[1] = target: T1, rabbit IL-12 (rabbit); experiment: SPR, antibody captured by anti-human Fc, cytokine injected
T1 chain 1: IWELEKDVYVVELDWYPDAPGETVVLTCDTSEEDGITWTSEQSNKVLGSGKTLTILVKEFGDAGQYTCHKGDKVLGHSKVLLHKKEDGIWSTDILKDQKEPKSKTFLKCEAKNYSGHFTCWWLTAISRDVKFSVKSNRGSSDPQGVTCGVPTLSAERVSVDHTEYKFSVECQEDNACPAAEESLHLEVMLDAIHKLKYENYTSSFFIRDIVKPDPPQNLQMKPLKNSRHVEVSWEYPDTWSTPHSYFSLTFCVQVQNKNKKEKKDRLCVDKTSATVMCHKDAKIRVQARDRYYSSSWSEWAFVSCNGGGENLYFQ
T1 chain 2: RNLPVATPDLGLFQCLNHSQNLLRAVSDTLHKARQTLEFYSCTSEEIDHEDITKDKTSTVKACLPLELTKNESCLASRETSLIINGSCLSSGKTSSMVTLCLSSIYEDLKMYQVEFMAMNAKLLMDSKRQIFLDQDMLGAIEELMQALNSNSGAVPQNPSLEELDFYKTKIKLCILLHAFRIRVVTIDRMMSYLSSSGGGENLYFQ
Method: (§1) In order to determine binding to TL1A, kinetic assays were conducted at 37° C. using a collection rate of 10 Hz on a Biacore™ T200 instrument (GE Healthcare). […] For the analysis of the p40 binding arm, kinetic assays were conducted at 37° C. using a collection rate of 10 Hz on a Biacore™ 8 K+ instrument (GE Healthcare).

[2] = target: T2, mouse IL-12 (mouse, UniProt P43432 23-335; P43431 23-215); experiment: as above
T2 sequence 1: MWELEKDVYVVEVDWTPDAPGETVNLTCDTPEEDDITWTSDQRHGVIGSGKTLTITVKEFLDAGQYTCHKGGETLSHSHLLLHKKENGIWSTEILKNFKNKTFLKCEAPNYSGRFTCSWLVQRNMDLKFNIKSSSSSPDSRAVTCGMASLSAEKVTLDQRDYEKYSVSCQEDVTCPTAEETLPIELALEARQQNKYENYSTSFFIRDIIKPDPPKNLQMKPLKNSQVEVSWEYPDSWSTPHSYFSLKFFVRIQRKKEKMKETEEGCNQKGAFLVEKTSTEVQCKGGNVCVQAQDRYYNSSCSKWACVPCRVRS
T2 sequence 2: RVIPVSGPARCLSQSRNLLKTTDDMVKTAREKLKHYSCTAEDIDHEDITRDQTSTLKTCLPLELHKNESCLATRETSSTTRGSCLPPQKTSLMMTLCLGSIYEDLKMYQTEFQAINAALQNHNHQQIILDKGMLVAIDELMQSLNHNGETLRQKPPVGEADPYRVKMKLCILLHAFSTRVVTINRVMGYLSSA
Method: as §1

[3] = target: T3, rat IL-12 (rat, UniProt P43432 23-335; Q9R103 23-215, limits assumed); experiment: as above
T3 chain 1: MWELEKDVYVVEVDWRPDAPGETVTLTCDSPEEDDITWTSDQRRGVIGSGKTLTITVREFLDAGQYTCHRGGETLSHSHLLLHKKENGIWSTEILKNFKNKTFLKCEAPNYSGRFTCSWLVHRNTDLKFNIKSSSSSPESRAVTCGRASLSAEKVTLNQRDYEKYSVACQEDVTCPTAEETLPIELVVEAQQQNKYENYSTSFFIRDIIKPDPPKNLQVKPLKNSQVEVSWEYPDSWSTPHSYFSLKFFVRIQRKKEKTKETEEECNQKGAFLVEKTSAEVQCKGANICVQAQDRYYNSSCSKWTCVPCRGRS
T3 chain 2: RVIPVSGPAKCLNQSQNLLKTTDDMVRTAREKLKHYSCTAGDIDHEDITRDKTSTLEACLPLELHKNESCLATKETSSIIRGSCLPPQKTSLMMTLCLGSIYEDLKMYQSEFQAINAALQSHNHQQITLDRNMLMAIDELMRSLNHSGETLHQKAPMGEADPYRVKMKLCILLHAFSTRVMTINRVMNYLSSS
Method: as §1

[4] = target: T4, rabbit IL-23 (rabbit); experiment: as above
T4 chain 1: T1 chain 1
T4 chain 2: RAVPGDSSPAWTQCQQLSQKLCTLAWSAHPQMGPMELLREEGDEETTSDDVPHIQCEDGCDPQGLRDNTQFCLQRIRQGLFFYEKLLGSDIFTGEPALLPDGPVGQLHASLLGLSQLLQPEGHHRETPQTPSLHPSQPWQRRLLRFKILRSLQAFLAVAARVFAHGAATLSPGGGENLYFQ
Method: as §1

[5] = target: T5, mouse IL-23 (mouse, UniProt P43432 23-335; Q9EQ14 22-196); experiment: as above
T5 sequence 1: T2 sequence 1
T5 sequence 2: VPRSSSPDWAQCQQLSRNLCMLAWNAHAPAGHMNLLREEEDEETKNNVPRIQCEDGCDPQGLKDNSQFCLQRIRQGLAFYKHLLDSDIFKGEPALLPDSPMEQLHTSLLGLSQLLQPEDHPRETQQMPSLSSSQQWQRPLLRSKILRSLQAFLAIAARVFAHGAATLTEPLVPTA
Method: as §1

[6] = target: T6, rat IL-23 (rat, UniProt P43432 23-335; Q91Z84 22-196, limits assumed); experiment: as above
T6 chain 1: T3 chain 1
T6 chain 2: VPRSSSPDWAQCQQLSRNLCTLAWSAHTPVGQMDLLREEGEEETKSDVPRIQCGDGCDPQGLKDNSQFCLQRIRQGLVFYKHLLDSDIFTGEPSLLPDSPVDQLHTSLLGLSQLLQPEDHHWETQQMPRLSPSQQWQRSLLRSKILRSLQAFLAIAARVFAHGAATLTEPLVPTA
Method: as §1

[7] = target: T7, recombinant human TL1A (human, UniProt O95150 71-251); experiment: cell-based or functional assay
T7 chain: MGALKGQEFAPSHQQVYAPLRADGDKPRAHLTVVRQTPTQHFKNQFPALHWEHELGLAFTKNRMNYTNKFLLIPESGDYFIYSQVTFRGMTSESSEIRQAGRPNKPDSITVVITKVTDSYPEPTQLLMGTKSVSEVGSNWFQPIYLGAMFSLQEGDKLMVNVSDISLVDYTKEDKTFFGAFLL

binding result [1]: no binding (tested: 200 nM)
binding result [2]: no binding (tested: 200 nM)
binding result [3]: no binding (tested: 200 nM)
binding result [4]: no binding (tested: 200 nM)
binding result [5]: no binding (tested: 200 nM)
binding result [6]: no binding (tested: 200 nM)
B1: p40TL1A-0033 (bispecific antibody, human IgG1, kappa)
chain 1: not shown
chain 2: QVQLVQSGAEVKKPGASVKVSCKASGYDYTYYGISWVRQAPGQGLEWMGWISTYNTGTHYAPSLQGRVTMTTDTSTSTAYMELRSLRSDDTAVYYCARESYYGSGAFRGGMDVWGQGTTVTVSSASTKGPSVFPLAPSSKSTSGGTAALGCLVKDYFPEPVTVSWNSGALTSGVHTFPAVLQSSGLYSLSSVVTVPSSSLGTQTYICNVNHKPSNTKVDKKVEPKSC
heavy: EVQLVQSGAEVKKPGESLKISCKGSGYSFTTYWLGWVRQMPGKGLDWIGIMSPVDSDIRYSPSFQGQVTMSVDKSITTAYLQWNSLKASDTAMYYCARRRPGQGYFDFWGQGTLVTVSSASTKGPSVFPLAPSSKSTSGGTAALGCLVKDYFPEPVTVSWNSGALTSGVHTFPAVLQSSGLYSLSSVVTVPSSSLGTQTYICNVNHKPSNTKVDKKVEPKSCDKTHTCPPCPAPEAAGAPSVFLFPPKPKDTLMISRTPEVTCVVVDVSHEDPEVKFNWYVDGVEVHNAKTKPREEQYNSTYRVVSVLTVLHQDWLNGKEYKCKVSNKALPAPIEKTISKAKGQPREPQVCTLPPSREEMTKNQVSLWCLVKGFYPSDIAVEWESNGQPENNYKTTPPVLDSDGSFFLYSKLTVDKSRWQQGNVFSCSVLHEALHSHYTQKSLSLSPGK
light: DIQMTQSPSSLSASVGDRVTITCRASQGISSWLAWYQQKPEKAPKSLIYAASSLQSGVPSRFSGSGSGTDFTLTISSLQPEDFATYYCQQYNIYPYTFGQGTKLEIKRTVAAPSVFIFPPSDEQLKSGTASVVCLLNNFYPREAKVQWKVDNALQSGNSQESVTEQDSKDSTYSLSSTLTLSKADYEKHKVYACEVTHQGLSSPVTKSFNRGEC
notes: KiH modified-Fd bispecific: TL1A VL-CL-Fc (hole), TL1A mFd, p40 HC (knob), p40 LC; LS

NF-κB assay IC50 (TF-1 reporter cells, 384-well) [7]: 0.31 nM
B2: p40TL1A-0033 bispecific antibody (bispecific antibody, human IgG1, kappa)
heavy: B1 heavy
light: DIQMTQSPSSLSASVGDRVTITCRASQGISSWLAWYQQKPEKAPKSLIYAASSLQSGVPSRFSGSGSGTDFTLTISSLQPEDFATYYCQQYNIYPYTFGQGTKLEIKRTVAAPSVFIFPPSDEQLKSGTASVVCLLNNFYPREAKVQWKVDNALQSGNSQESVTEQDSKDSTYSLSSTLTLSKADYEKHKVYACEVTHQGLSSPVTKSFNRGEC
chain 1: not shown
chain 2: B1 chain 2
notes: Single cell KiH, modified Fd format; IgG1 effector-function-minimized Fc with LS mutations
